For assay [1], the target named is T1, YFP-ΔGL1,2 Pins-CFP fusion protein (Pins FRET biosensor) (Drosophila, UniProt Q9VB22 1-658, R486F | R570F).
T1 sequence (looked up): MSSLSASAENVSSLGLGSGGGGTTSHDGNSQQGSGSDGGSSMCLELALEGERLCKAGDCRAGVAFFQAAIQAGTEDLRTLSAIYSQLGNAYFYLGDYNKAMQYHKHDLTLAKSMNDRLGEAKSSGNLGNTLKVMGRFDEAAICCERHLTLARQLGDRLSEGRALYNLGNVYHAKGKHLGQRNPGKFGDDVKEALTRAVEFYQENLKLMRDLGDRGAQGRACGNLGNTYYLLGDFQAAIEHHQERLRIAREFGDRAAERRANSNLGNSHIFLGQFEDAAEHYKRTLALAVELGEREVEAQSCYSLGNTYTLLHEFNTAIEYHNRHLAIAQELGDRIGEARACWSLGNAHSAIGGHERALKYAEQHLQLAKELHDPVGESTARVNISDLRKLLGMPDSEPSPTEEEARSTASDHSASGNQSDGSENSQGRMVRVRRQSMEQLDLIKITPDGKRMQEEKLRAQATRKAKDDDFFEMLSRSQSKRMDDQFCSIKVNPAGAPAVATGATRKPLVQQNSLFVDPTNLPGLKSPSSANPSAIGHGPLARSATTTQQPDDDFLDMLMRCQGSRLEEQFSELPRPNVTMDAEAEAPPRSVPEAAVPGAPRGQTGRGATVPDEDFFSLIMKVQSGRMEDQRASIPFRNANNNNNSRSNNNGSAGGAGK
The assay can be described thus: FRET or BRET.

Assay [2] deals with tetramethylrhodamine labeled Mud peptide (TMR-Mud) (Drosophila). The assay can be described thus: fluorescence polarisation. A general note: Polarisation of emitted light reports the rotation of a fluorescent probe.

B1: heterotrimeric G-protein alpha subunit Gαi, GDP-loaded (natural protein, UniProt P20353 1-355, looked up)
chain: MGCAVSTARDKEAIERSKNIDRALRAEGERAASEVKLLLLGAGESGKSTIVKQMKIIHDTGYSQEECEEYRRVVFSNTVQSLMVIIRAMGRLKIEFADPSRTDIARQFFTHASAADEGILLPEIVLLMKKLWADGGVQQSFARSREYQLNDSAGYYLNSLDRIAQPNYIPTQQDVLRTRVKTTGIIETHFSCKQLHFKLFDVGGQRSERKKWIHCFEGVTAIIFCVALSGYDLVLAEDEEMNRMIESLKLFDSICNSKWFVETSIILFLNKKDLFEEKIKRSPLTICFPEYTGTNTFEEAANYIRMKFENLNKRKDQKEIYTHLTCATDTNNVKFVFDAVTDVIIKNNLKQIGLF
B1 returned a dissociation constant (Kd) in assay [1] of 3.4 ± 0.3 µM.

B2: ΔGL1,2 Pins (R486F and R570F) (natural protein)
chain: T1 sequence (looked up)
In turn, B2 returned a Pins activation (%) in assay [2] of 85%.

Usually Kd stands for the equilibrium constant for the complex coming apart. A lower Kd goes with a tighter complex.
